Results taken from publication PMC12431651.

Columns and labels:
Test in all cases: ITC; MED25 ACID (200 or 250 µM, syringe) titrated into NS1 (20 µM, cell); 20 mM Tris pH 8.0, 200 mM NaCl, 1 mM TCEP, 25°C; one set of sites model
[1] = biological target: RSV NS1, full-length wild type (aa 1–139) (human respiratory syncytial virus subgroup A, Long strain)
[2] = biological target: NS1 L133A (human respiratory syncytial virus subgroup A, Long strain)
[3] = biological target: NS1 F56A (human respiratory syncytial virus subgroup A, Long strain)
[4] = biological target: NS1 I54A (human respiratory syncytial virus subgroup A, Long strain)
[5] = biological target: NS1 Y125A (human respiratory syncytial virus subgroup A, Long strain)
[6] = biological target: NS1 E110A (human respiratory syncytial virus subgroup A, Long strain)
[7] = biological target: NS1 M122A (human respiratory syncytial virus subgroup A, Long strain)
[8] = biological target: NS1 K112A (human respiratory syncytial virus subgroup A, Long strain)

B1: MED25 ACID (aa 389–543) (domain or fragment)
chain: LGGQQSVSNKLLAWSGVLEWQEKPKPASVDANTKLTRSLPCQVYVNHGENLKTEQWPQKLIMQLIPQQLLTTLGPLFRNSRMVQFHFTNKDLESLKGLYRIMGNGFAGCVHFPHTAPCEVRVLMLLYSSKKKIFMGLIPYDQSGFVNGIRQVITN
B1 gave a Kd [1] of 44 nM, a dH [1] of -10.1 kcal/mol and a stoichiometry N [1] of 0.73. For the same binder, the Kd [2] was 2230 nM, the dH [2] was -7.6 kcal/mol and the stoichiometry N [2] was 0.44. It also gave a Kd [3] of 198 nM, a dH [3] of -8.3 kcal/mol and a stoichiometry N [3] of 0.8. For the same binder, the Kd [4] was 45 nM, the dH [4] was -10.7 kcal/mol and the stoichiometry N [4] was 0.79. It also gave a Kd [5] of 80 nM, a dH [5] of -11.9 kcal/mol and a stoichiometry N [5] of 0.53. It also gave a Kd [6] of 1540 nM, a dH [6] of -7.7 kcal/mol and a stoichiometry N [6] of 0.86. For the same binder, the Kd [7] was 606 nM, the dH [7] was -10.4 kcal/mol and the stoichiometry N [7] was 0.71. It also gave a Kd [8] of 79 nM, a dH [8] of -10.7 kcal/mol and a stoichiometry N [8] of 0.66.
